In US20240376151A1, “STAPLED PEPTIDES AND METHODS THEREOF” (FOG PHARMACEUTICALS, INC., priority 2022, published 2024):

Target: T1, beta-catenin (Homo sapiens, UniProt P35222)
T1 construct: made in house; host or cells: E. coli BL21 (DE3) pLysS
T1 sequence (P35222 134-665): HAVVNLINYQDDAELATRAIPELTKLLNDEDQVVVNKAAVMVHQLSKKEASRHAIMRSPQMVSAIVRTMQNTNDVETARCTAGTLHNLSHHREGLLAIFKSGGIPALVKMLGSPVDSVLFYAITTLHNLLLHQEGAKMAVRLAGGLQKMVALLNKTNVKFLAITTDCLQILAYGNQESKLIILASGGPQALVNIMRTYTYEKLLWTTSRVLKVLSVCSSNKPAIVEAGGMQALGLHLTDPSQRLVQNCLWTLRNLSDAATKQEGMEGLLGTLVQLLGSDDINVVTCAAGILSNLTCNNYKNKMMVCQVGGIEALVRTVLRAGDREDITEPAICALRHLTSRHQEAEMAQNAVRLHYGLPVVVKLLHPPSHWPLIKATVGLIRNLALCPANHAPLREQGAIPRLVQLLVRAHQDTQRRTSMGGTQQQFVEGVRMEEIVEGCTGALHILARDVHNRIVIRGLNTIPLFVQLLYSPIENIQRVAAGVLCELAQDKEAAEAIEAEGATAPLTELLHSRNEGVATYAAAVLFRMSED
Test: Phage Library Screening with NGS, beta-catenin
Type: binding
Conditions: for Target Concentration 10 (phage screen NGS readout): beta-catenin target concentration 10; for Target Concentration 10 (phage screen NGS readout) / Target Concentration 30 (phage screen NGS readout) / Target Concentration 100 (phage screen NGS readout) / Target Concentration 300 (phage screen NGS readout): no competitor; for Target Concentration 30 (phage screen NGS readout): beta-catenin target concentration 30; for Target Concentration 100 (phage screen NGS readout): beta-catenin target concentration 100; for Target Concentration 300 (phage screen NGS readout): beta-catenin target concentration 300; for Target Concentration 1000 (phage screen NGS readout): beta-catenin target concentration 1000

DPAILDCQLAAMDCSTW
Target Concentration BLANK (phage screen NGS readout) (first column): 0 | Target Concentration BLANK (phage screen NGS readout) (fourth column): 0 | Target Concentration BLANK (phage screen NGS readout) (second column): 0 | Target Concentration BLANK (phage screen NGS readout) (third column): 0 | Target Concentration 10 (phage screen NGS readout): 0 | Target Concentration 30 (phage screen NGS readout): 6 | Target Concentration 100 (phage screen NGS readout): 22 | Target Concentration 300 (phage screen NGS readout): 21 | Target Concentration 1000 (phage screen NGS readout) (first 1000 column): 25 | Target Concentration 1000 (phage screen NGS readout) (second 1000 column): 55

DPAMSQCNWAAVHCQLL
Target Concentration BLANK (phage screen NGS readout) (first column): 0 | Target Concentration BLANK (phage screen NGS readout) (fourth column): 0 | Target Concentration BLANK (phage screen NGS readout) (second column): 0 | Target Concentration BLANK (phage screen NGS readout) (third column): 0 | Target Concentration 10 (phage screen NGS readout): 6 | Target Concentration 30 (phage screen NGS readout): 6 | Target Concentration 100 (phage screen NGS readout): 6 | Target Concentration 300 (phage screen NGS readout): 13 | Target Concentration 1000 (phage screen NGS readout) (first 1000 column): 15 | Target Concentration 1000 (phage screen NGS readout) (second 1000 column): 23

DPAVDECIIAAHICHIW
Target Concentration BLANK (phage screen NGS readout) (first column): 0 | Target Concentration BLANK (phage screen NGS readout) (fourth column): 0 | Target Concentration BLANK (phage screen NGS readout) (second column): 0 | Target Concentration BLANK (phage screen NGS readout) (third column): 0 | Target Concentration 10 (phage screen NGS readout): 0 | Target Concentration 30 (phage screen NGS readout): 4 | Target Concentration 100 (phage screen NGS readout): 21 | Target Concentration 300 (phage screen NGS readout): 44 | Target Concentration 1000 (phage screen NGS readout) (first 1000 column): 31 | Target Concentration 1000 (phage screen NGS readout) (second 1000 column): 66

DPAILDCQLAAIDCVYT
Target Concentration BLANK (phage screen NGS readout) (first column): 0 | Target Concentration BLANK (phage screen NGS readout) (fourth column): 0 | Target Concentration BLANK (phage screen NGS readout) (second column): 0 | Target Concentration BLANK (phage screen NGS readout) (third column): 0 | Target Concentration 10 (phage screen NGS readout): 3 | Target Concentration 30 (phage screen NGS readout): 21 | Target Concentration 100 (phage screen NGS readout): 67 | Target Concentration 300 (phage screen NGS readout): 168 | Target Concentration 1000 (phage screen NGS readout) (first 1000 column): 201 | Target Concentration 1000 (phage screen NGS readout) (second 1000 column): 114

DPAEWQCEHAALLCEQQ
Target Concentration BLANK (phage screen NGS readout) (first column): 0 | Target Concentration BLANK (phage screen NGS readout) (fourth column): 6 | Target Concentration BLANK (phage screen NGS readout) (second column): 2 | Target Concentration BLANK (phage screen NGS readout) (third column): 0 | Target Concentration 10 (phage screen NGS readout): 78 | Target Concentration 30 (phage screen NGS readout): 201 | Target Concentration 100 (phage screen NGS readout): 907 | Target Concentration 300 (phage screen NGS readout): 1681 | Target Concentration 1000 (phage screen NGS readout) (first 1000 column): 1740 | Target Concentration 1000 (phage screen NGS readout) (second 1000 column): 1609

DPAVEDCVLAAHVCAWF
Target Concentration BLANK (phage screen NGS readout) (first column): 0 | Target Concentration BLANK (phage screen NGS readout) (fourth column): 0 | Target Concentration BLANK (phage screen NGS readout) (second column): 0 | Target Concentration BLANK (phage screen NGS readout) (third column): 0 | Target Concentration 10 (phage screen NGS readout): 0 | Target Concentration 30 (phage screen NGS readout): 2 | Target Concentration 100 (phage screen NGS readout): 47 | Target Concentration 300 (phage screen NGS readout): 39 | Target Concentration 1000 (phage screen NGS readout) (first 1000 column): 49 | Target Concentration 1000 (phage screen NGS readout) (second 1000 column): 73

DPAEHDCMLAAHFCRHF
Target Concentration BLANK (phage screen NGS readout) (first column): 0 | Target Concentration BLANK (phage screen NGS readout) (fourth column): 0 | Target Concentration BLANK (phage screen NGS readout) (second column): 2 | Target Concentration BLANK (phage screen NGS readout) (third column): 0 | Target Concentration 10 (phage screen NGS readout): 8 | Target Concentration 30 (phage screen NGS readout): 55 | Target Concentration 100 (phage screen NGS readout): 242 | Target Concentration 300 (phage screen NGS readout): 194 | Target Concentration 1000 (phage screen NGS readout) (first 1000 column): 337 | Target Concentration 1000 (phage screen NGS readout) (second 1000 column): 260

DPAIFNCTMAALECTQI
Target Concentration BLANK (phage screen NGS readout) (first column): 0 | Target Concentration BLANK (phage screen NGS readout) (fourth column): 0 | Target Concentration BLANK (phage screen NGS readout) (second column): 0 | Target Concentration BLANK (phage screen NGS readout) (third column): 0 | Target Concentration 10 (phage screen NGS readout): 0 | Target Concentration 30 (phage screen NGS readout): 0 | Target Concentration 100 (phage screen NGS readout): 2 | Target Concentration 300 (phage screen NGS readout): 3 | Target Concentration 1000 (phage screen NGS readout) (first 1000 column): 19 | Target Concentration 1000 (phage screen NGS readout) (second 1000 column): 0

DPAEIICYEAAFLCQYQ
Target Concentration BLANK (phage screen NGS readout) (first column): 0 | Target Concentration BLANK (phage screen NGS readout) (fourth column): 0 | Target Concentration BLANK (phage screen NGS readout) (second column): 0 | Target Concentration BLANK (phage screen NGS readout) (third column): 0 | Target Concentration 10 (phage screen NGS readout): 0 | Target Concentration 30 (phage screen NGS readout): 0 | Target Concentration 100 (phage screen NGS readout): 0 | Target Concentration 300 (phage screen NGS readout): 15 | Target Concentration 1000 (phage screen NGS readout) (first 1000 column): 38 | Target Concentration 1000 (phage screen NGS readout) (second 1000 column): 26

DPAWQNCTWAAFHCELL
Target Concentration BLANK (phage screen NGS readout) (first column): 0 | Target Concentration BLANK (phage screen NGS readout) (fourth column): 0 | Target Concentration BLANK (phage screen NGS readout) (second column): 1 | Target Concentration BLANK (phage screen NGS readout) (third column): 0 | Target Concentration 10 (phage screen NGS readout): 0 | Target Concentration 30 (phage screen NGS readout): 10 | Target Concentration 100 (phage screen NGS readout): 52 | Target Concentration 300 (phage screen NGS readout): 194 | Target Concentration 1000 (phage screen NGS readout) (first 1000 column): 158 | Target Concentration 1000 (phage screen NGS readout) (second 1000 column): 163

DPAVQDCEWAAIYCELI
Target Concentration BLANK (phage screen NGS readout) (first column): 0 | Target Concentration BLANK (phage screen NGS readout) (fourth column): 1 | Target Concentration BLANK (phage screen NGS readout) (second column): 1 | Target Concentration BLANK (phage screen NGS readout) (third column): 0 | Target Concentration 10 (phage screen NGS readout): 0 | Target Concentration 30 (phage screen NGS readout): 9 | Target Concentration 100 (phage screen NGS readout): 10 | Target Concentration 300 (phage screen NGS readout): 158 | Target Concentration 1000 (phage screen NGS readout) (first 1000 column): 104 | Target Concentration 1000 (phage screen NGS readout) (second 1000 column): 157

DPAENTCSWAAEHCALV
Target Concentration BLANK (phage screen NGS readout) (first column): 0 | Target Concentration BLANK (phage screen NGS readout) (fourth column): 0 | Target Concentration BLANK (phage screen NGS readout) (second column): 0 | Target Concentration BLANK (phage screen NGS readout) (third column): 0 | Target Concentration 10 (phage screen NGS readout): 0 | Target Concentration 30 (phage screen NGS readout): 0 | Target Concentration 100 (phage screen NGS readout): 0 | Target Concentration 300 (phage screen NGS readout): 26 | Target Concentration 1000 (phage screen NGS readout) (first 1000 column): 28 | Target Concentration 1000 (phage screen NGS readout) (second 1000 column): 31

DPAMVTCYEAAYVCQYF
Target Concentration BLANK (phage screen NGS readout) (first column): 0 | Target Concentration BLANK (phage screen NGS readout) (fourth column): 0 | Target Concentration BLANK (phage screen NGS readout) (second column): 0 | Target Concentration BLANK (phage screen NGS readout) (third column): 0 | Target Concentration 10 (phage screen NGS readout): 0 | Target Concentration 30 (phage screen NGS readout): 0 | Target Concentration 100 (phage screen NGS readout): 0 | Target Concentration 300 (phage screen NGS readout): 0 | Target Concentration 1000 (phage screen NGS readout) (first 1000 column): 7 | Target Concentration 1000 (phage screen NGS readout) (second 1000 column): 0

DPAEADCMMAAHICSNI
Target Concentration BLANK (phage screen NGS readout) (first column): 0 | Target Concentration BLANK (phage screen NGS readout) (fourth column): 0 | Target Concentration BLANK (phage screen NGS readout) (second column): 0 | Target Concentration BLANK (phage screen NGS readout) (third column): 0 | Target Concentration 10 (phage screen NGS readout): 0 | Target Concentration 30 (phage screen NGS readout): 0 | Target Concentration 100 (phage screen NGS readout): 21 | Target Concentration 300 (phage screen NGS readout): 15 | Target Concentration 1000 (phage screen NGS readout) (first 1000 column): 46 | Target Concentration 1000 (phage screen NGS readout) (second 1000 column): 22
